Laboratory results as given in the supplement of paper PMC9876800.

System: peptide library, one residue held at a place counted from the S/T acceptor
Assay: relative phosphorylation of the sub-library (ratio to the mean residue at this position); higher = residue favoured
Settings: human
In short: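 Relative sub-library phosphorylation is the ratio of each sub-library's signal to the mean residue at that position. The signal came from phosphorimaging of spots on streptavidin membranes, quantified by densitometry, after purified recombinant kinases reacted with biotinylated degenerate peptide sub-libraries in 384-well plates. Reactions held 50 μM peptide and 50 μM ATP spiked with γ-32P-ATP for 90 min under kinase-specific conditions.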

Chain of CAMKK1, construct: aa124-411 (Q8N5S9 124-411, looked up): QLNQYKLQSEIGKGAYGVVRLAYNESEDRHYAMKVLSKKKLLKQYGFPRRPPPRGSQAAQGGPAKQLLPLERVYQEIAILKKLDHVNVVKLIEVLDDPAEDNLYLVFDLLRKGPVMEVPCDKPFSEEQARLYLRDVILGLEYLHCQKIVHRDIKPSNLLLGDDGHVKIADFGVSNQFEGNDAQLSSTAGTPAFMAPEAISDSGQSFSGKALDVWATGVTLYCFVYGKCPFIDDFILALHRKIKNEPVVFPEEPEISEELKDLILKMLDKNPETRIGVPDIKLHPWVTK
Chain of IRAK4, construct: aa104-end (Q9NWZ3 104-460, looked up): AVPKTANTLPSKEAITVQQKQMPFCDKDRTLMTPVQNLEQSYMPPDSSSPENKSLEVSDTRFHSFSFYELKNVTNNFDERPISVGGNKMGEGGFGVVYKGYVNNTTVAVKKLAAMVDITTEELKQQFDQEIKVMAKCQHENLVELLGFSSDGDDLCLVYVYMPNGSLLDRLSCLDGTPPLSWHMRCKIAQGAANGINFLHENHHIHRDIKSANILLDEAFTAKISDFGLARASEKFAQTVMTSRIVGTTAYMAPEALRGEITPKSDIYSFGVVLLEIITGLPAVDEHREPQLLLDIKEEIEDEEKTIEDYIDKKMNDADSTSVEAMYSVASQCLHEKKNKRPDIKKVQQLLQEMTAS
Chain of CAMK1D, construct: Full length (Q8IU85 whole entry, looked up): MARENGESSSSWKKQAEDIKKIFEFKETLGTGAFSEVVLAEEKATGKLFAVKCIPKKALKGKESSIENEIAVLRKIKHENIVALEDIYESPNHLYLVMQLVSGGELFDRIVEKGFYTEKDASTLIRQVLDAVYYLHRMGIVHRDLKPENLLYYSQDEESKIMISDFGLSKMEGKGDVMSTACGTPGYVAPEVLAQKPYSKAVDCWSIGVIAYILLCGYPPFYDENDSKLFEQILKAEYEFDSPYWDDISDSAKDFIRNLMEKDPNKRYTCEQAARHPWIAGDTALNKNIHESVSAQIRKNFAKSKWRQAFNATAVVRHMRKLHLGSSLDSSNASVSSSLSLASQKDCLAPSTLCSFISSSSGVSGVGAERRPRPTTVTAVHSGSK

CAMK1D, construct: Full length (from UniProt Q8IU85)
relative phosphorylation
Settings | at +1 | at +2 | at +3 | at +4 | at -1 | at -2 | at -3 | at -4 | at -5
A fixed | 0.771 | 0.831 | 0.729 | 0.681 | 0.791 | 0.914 | 0.52 | 0.782 | 0.533
D fixed | 0.658 | 1.06 | 1.35 | 0.996 | 0.975 | 0.373 | 0.154 | 0.438 | 0.269
E fixed | 0.811 | 1.22 | 1.15 | 0.974 | 0.646 | 0.504 | 0.22 | 0.784 | 0.252
F fixed | 1.75 | 1.14 | 1.17 | 1.39 | 0.597 | 0.446 | 0.631 | 0.724 | 1.38
G fixed | 0.761 | 0.625 | 0.956 | 0.822 | 0.793 | 0.772 | 0.287 | 0.698 | 0.564
H fixed | 1.03 | 1.47 | 1.34 | 0.936 | 1.35 | 0.962 | 0.964 | 0.955 | 0.787
I fixed | 0.665 | 0.881 | 0.722 | 1.35 | 0.475 | 0.37 | 0.132 | 0.815 | 1.31
K fixed | 1.26 | 0.591 | 0.717 | 0.675 | 1.9 | 1.95 | 2.7 | 2.58 | 0.999
L fixed | 0.744 | 1.06 | 0.892 | 1.39 | 0.759 | 0.526 | 0.164 | 0.886 | 2.33
M fixed | 1.01 | 0.846 | 0.854 | 1.51 | 0.824 | 1.09 | 0.238 | 0.995 | 1.35
N fixed | 1.29 | 1.3 | 1.44 | 1.01 | 1.85 | 0.965 | 0.414 | 0.923 | 0.594
P fixed | 0.237 | 0.753 | 0.786 | 1.12 | 1.41 | 0.311 | 0.389 | 0.63 | 1.19
Q fixed | 1.68 | 1.14 | 1.07 | 0.969 | 1.28 | 2.08 | 0.63 | 1.06 | 0.905
R fixed | 1.62 | 0.7 | 0.785 | 0.616 | 1.5 | 3.51 | 8.75 | 2.35 | 1.85
V fixed | 0.747 | 0.736 | 0.627 | 0.746 | 0.523 | 0.448 | 0.153 | 0.883 | 0.752
W fixed | 0.971 | 1.3 | 1.34 | 0.973 | 0.486 | 1.13 | 0.395 | 0.706 | 0.977
Y fixed | 0.988 | 1.35 | 1.07 | 0.833 | 0.834 | 0.656 | 0.263 | 0.789 | 0.961
pThr fixed | 0.967 | 0.874 | 0.756 | 1.2 | 0.312 | 0.312 | 0.221 | 0.486 | 0.375
pTyr fixed | 0.844 | 2.75 | 1.25 | 0.949 | 0.739 | 0.291 | 0.205 | 0.431 | 0.739

CAMKK1, construct: aa124-411 (from UniProt Q8N5S9)
relative phosphorylation
Settings | at +1 | at +2 | at +3 | at +4 | at -1 | at -2 | at -3 | at -4 | at -5
A fixed | 0.901 | 0.973 | 0.903 | 0.897 | 1.05 | 0.46 | 1.22 | 1.1 | 1.33
D fixed | 0.614 | 0.968 | 0.958 | 1.06 | 1.05 | 0.445 | 0.426 | 1.26 | 1.18
E fixed | 0.644 | 0.723 | 0.891 | 1.05 | 1.31 | 0.348 | 0.461 | 1.18 | 1.06
F fixed | 0.858 | 0.802 | 0.751 | 0.774 | 0.629 | 1.59 | 1.36 | 1.02 | 0.853
G fixed | 0.83 | 0.897 | 1.14 | 1.2 | 0.7 | 0.458 | 0.757 | 1.18 | 1.32
H fixed | 1.31 | 1.44 | 1.24 | 1.12 | 1.06 | 0.949 | 1.12 | 1.06 | 1.05
I fixed | 1.06 | 0.725 | 0.597 | 0.612 | 0.645 | 0.756 | 1.18 | 0.675 | 0.687
K fixed | 0.907 | 0.997 | 1.27 | 1.18 | 1.05 | 0.463 | 0.443 | 0.806 | 1.18
L fixed | 1.12 | 0.703 | 0.657 | 0.76 | 1.14 | 2.71 | 1.29 | 0.811 | 0.605
M fixed | 1.37 | 0.901 | 0.797 | 0.845 | 1.27 | 2.52 | 2.16 | 0.82 | 0.901
N fixed | 1.21 | 1.11 | 1.2 | 1.25 | 1.21 | 0.811 | 0.832 | 1.03 | 1.04
P fixed | 0.157 | 0.927 | 1.2 | 1.29 | 0.192 | 0.229 | 1.05 | 0.96 | 1.21
Q fixed | 1.33 | 1.08 | 1.15 | 1.14 | 1.51 | 0.696 | 0.872 | 0.955 | 0.863
R fixed | 1.31 | 1.57 | 1.49 | 1.23 | 1.75 | 0.633 | 0.583 | 0.791 | 1.13
V fixed | 1.06 | 0.865 | 0.702 | 0.628 | 0.696 | 0.594 | 1.04 | 0.83 | 0.786
W fixed | 1.01 | 0.968 | 0.975 | 1.13 | 0.718 | 0.668 | 1.03 | 1.59 | 0.906
Y fixed | 1.31 | 1.36 | 1.08 | 0.848 | 1.02 | 2.67 | 1.18 | 0.926 | 0.903
pThr fixed | 0.793 | 0.982 | 0.885 | 0.852 | 0.508 | 0.624 | 0.842 | 0.969 | 0.9
pTyr fixed | 0.907 | 0.947 | 1.01 | 0.925 | 1.28 | 0.668 | 0.726 | 0.838 | 0.979

IRAK4, construct: aa104-end (from UniProt Q9NWZ3)
relative phosphorylation
Settings | at +1 | at +2 | at +3 | at +4 | at -1 | at -2 | at -3 | at -4 | at -5
A fixed | 1 | 0.837 | 0.672 | 0.783 | 0.78 | 1.05 | 0.954 | 1.13 | 1.15
D fixed | 0.163 | 0.147 | 0.24 | 0.423 | 0.303 | 0.404 | 0.555 | 0.603 | 0.602
E fixed | 0.314 | 0.164 | 0.217 | 0.405 | 0.247 | 0.405 | 0.507 | 0.619 | 0.554
F fixed | 1.05 | 1.27 | 1.4 | 0.77 | 0.886 | 0.903 | 0.885 | 0.97 | 0.895
G fixed | 1.13 | 0.45 | 0.698 | 0.935 | 0.636 | 1.31 | 1.36 | 1.22 | 1.29
H fixed | 1.07 | 1.13 | 1.49 | 1.26 | 1.28 | 1.06 | 1.05 | 1.01 | 1.15
I fixed | 0.92 | 1.42 | 1.33 | 0.897 | 0.774 | 0.842 | 0.755 | 0.742 | 0.89
K fixed | 1.94 | 1.43 | 1.56 | 1.89 | 2.3 | 1.23 | 1.53 | 1.46 | 1.52
L fixed | 0.83 | 1.05 | 1.24 | 0.85 | 0.877 | 1.23 | 0.935 | 0.852 | 0.774
M fixed | 1.2 | 1.16 | 1.15 | 1.01 | 1 | 1.57 | 1.03 | 0.907 | 0.837
N fixed | 0.705 | 0.669 | 0.651 | 1.04 | 1 | 1.14 | 1.1 | 1.14 | 0.997
P fixed | 0.139 | 0.406 | 0.252 | 0.961 | 0.666 | 1.04 | 1.11 | 1.12 | 1.22
Q fixed | 1.34 | 0.862 | 0.919 | 0.983 | 0.973 | 0.979 | 0.964 | 0.864 | 0.866
R fixed | 2.58 | 1.99 | 1.76 | 1.83 | 2.31 | 1.34 | 1.65 | 1.5 | 1.59
V fixed | 1.08 | 1.47 | 1.18 | 0.778 | 0.942 | 0.811 | 0.775 | 0.891 | 0.812
W fixed | 0.778 | 1 | 1.11 | 1.25 | 0.755 | 0.814 | 0.968 | 1.01 | 0.881
Y fixed | 0.755 | 1.53 | 1.12 | 0.942 | 1.26 | 0.878 | 0.864 | 0.957 | 0.966
pThr fixed | 0.276 | 0.274 | 0.341 | 0.33 | 0.352 | 0.678 | 0.866 | 0.752 | 0.87
pTyr fixed | 0.203 | 0.177 | 0.441 | 0.323 | 0.276 | 0.545 | 0.65 | 0.539 | 0.763
